From paper doi:10.1101/2024.06.25.600654 (bioRxiv, 2024)

Target: the molecule itself
Assay: SEC-SAXS

B1: ParB1 from Vibrio cholerae (vcParB1) (natural protein)
chain: MTKRGLGKGLDALLATSSLAREKQQVASLSQSMSAEGELADLSISNLKPGIYQPRKDLSPEALEELAASIQSQGIIQPIVVRHLPTGGYEIIAGERRWRAAKQAGLKQVPCLIKQVEDRGAIAMALIENIQREDLNAMEEAQALERLQNEFNLTHQQVAEVIGKSRTTVTNLLRLNQLSDDVKRLLETKQLEMGHARALLMLEGEQQVEIAQQVAKKQLTVRQTEQLVKKCLSDPSDAKNVSEDLEIQQLSQNLSEKLAAKVSIVRTPNGKSKVTISLDEPHKLELLIAKLQN
stoichiometry N: 2
